The target in one assay is HLA-A*30:01. Put plainly: IEDB peptide-MHC binding, purified MHC/direct/fluorescence; filed as Kd, often an IC50 or EC50 that approximates it; ≥ and ≤ were set here for values at or beyond the usual limits of such assays.
Assay [1] deals with HLA-B*15:01. The assay is described as above.
A further assay has as its target HLA-B*40:01. Described as above.
The next assay addresses HLA-A*24:03. The description is as above.
The target of the next assay is HLA-A*26:01. The assay is described as above.
A further assay has as its target HLA-B*44:02. Described as above.
A further assay addresses HLA-B*08:01. Described as above.
The target of the next assay is HLA-B*58:01. The description is as above.
A further assay concerns the target HLA-B*35:01. Described as above.
The target in a further assay is HLA-B*27:05. The description is as above.
The next assay addresses HLA-B*07:02. The assay is described as above.
For the next assay, the target named is HLA-A*69:01. The assay is described as above.
Assay [2] deals with HLA-A*01:01. The description is as above.
The target of another assay is HLA-A*02:01. Described as above.
The next assay has as its target HLA-A*03:01. Described as above.
In another assay the target is HLA-A*11:01. The description is as above.
The target of another assay is HLA-A*31:01. Described as above.
Assay [3] has as its target HLA-B*15:01. Put plainly: IEDB peptide-MHC binding, purified MHC/competitive/fluorescence; filed as Kd, often an IC50 or EC50 that approximates it; ≥ and ≤ were set here for values at or beyond the usual limits of such assays. The following applies: source organism: Giardia lamblia ATCC 50803.
For assay [4], the target named is HLA-B*15:17. The assay is described as above. The following applies: source organism: Giardia lamblia ATCC 50803.
Assay [5] addresses HLA-A*68:02. The assay is described as above. The following applies: source organism: Giardia lamblia ATCC 50803.
The target of assay [6] is HLA-B*57:01. Described as above. The following applies: source organism: Giardia lamblia ATCC 50803.
Assay [7] addresses HLA-A*01:01. The assay is described as above. The following applies: source organism: Giardia lamblia ATCC 50803.
The target of a further assay is HLA-B*48:01. Put plainly: IEDB peptide-MHC binding, purified MHC/direct/fluorescence; filed as Kd, often an IC50 or EC50 that approximates it; ≥ and ≤ were set here for values at or beyond the usual limits of such assays.
A further assay concerns the target HLA-B*18:01. The assay is described as above.
The target of another assay is HLA-A*26:03. The description is as above.
Another assay addresses HLA-B*08:02. The assay is described as above. The following applies: source organism: Giardia lamblia ATCC 50803.
The next assay concerns the target HLA-A*26:02. The description is as above.
The target in a further assay is HLA-B*46:01. Described as above. The following applies: source organism: Giardia lamblia ATCC 50803.
The target in assay [8] is HLA-B*15:17. The assay is described as above. The following applies: source organism: Vibrio vulnificus YJ016.
For a further assay, the target named is HLA-B*73:01. The description is as above. The following applies: source organism: Vibrio vulnificus YJ016.
Assay [9] addresses HLA-A*68:02. Described as above. The following applies: source organism: Vibrio vulnificus YJ016.
In another assay the target is HLA-B*39:01. The description is as above. The following applies: source organism: Vibrio vulnificus YJ016.
The target in assay [10] is HLA-B*57:01. The assay is described as above. The following applies: source organism: Vibrio vulnificus YJ016.
[11] abbreviates: source organism: Giardia intestinalis.
The mark [12] stands for this setting: source organism: Escherichia coli O157:H7.
The mark [13] stands for this setting: source organism: Giardia lamblia ATCC 50803.
Setting [14] is: source organism: Rickettsia prowazekii.
Where [15] appears, read: source organism: Vibrio vulnificus YJ016.

By Kd is commonly meant the free concentration of one partner at which half of the binding sites on the other are occupied at equilibrium, for simple one-to-one binding. In the case of DYAMHGTVF, the equilibrium dissociation constant (Kd) with HLA-A*30:01 (setting [11]) was not below 58.5 µM; with HLA-B*15:01 [1] (setting [11]) it was 3.8 µM; with HLA-B*40:01 (setting [11]), not below 20 µM; with HLA-A*24:03 (setting [11]), 2.36 µM; with HLA-A*26:01 (setting [11]), not below 20 µM; with HLA-B*44:02 (setting [11]) it was not below 20 µM. Besides, the Kd with HLA-B*08:01 (setting [11]) was 14.6 µM; in the assay with HLA-B*58:01 (setting [11]), not below 10 µM; in the assay with HLA-B*35:01 (setting [11]) it was 0.0621 µM; with HLA-B*27:05 (setting [11]), not below 20 µM; with HLA-B*07:02 (setting [11]) it was 8.71 µM; with HLA-A*69:01 (setting [11]), not below 20 µM. For the same sequence, the dissociation constant Kd with HLA-A*01:01 [2] (setting [11]), with HLA-A*02:01 (setting [11]) and in the assay with HLA-A*03:01 (setting [11]) was not below 20 µM throughout.
Take PSSKPDWFY: the Kd with HLA-A*11:01 (setting [12]) was not below 20 µM; with HLA-A*31:01 (setting [12]) it was not below 20 µM; with HLA-B*15:01 [1] (setting [12]) it was 15.2 µM; with HLA-B*40:01 (setting [12]), not below 20 µM; in the assay with HLA-A*24:03 (setting [12]), not below 20 µM; with HLA-A*26:01 (setting [12]), not below 20 µM. The Kd in the assay with HLA-B*44:02 (setting [12]) is not below 20 µM; in the assay with HLA-B*08:01 (setting [12]), not below 20 µM; with HLA-B*58:01 (setting [12]) it was not below 20 µM; with HLA-B*35:01 (setting [12]) it was 1.04 µM; with HLA-B*27:05 (setting [12]), not below 20 µM; with HLA-B*07:02 (setting [12]), not below 20 µM. In addition, the Kd with HLA-A*69:01 (setting [12]) is not below 20 µM; with HLA-A*01:01 [2] (setting [12]) it was 0.0197 µM; in the assay with HLA-A*02:01 (setting [12]), not below 20 µM; with HLA-A*03:01 (setting [12]), not below 20 µM.
For the sequence KSNRIPFLY, the Kd with HLA-B*15:01 [3] is 0.212 µM; in the assay with HLA-B*15:17 [4], 0.01 µM; with HLA-A*68:02 [5], not below 20 µM; in the assay with HLA-B*57:01 [6], 0.243 µM; with HLA-A*01:01 [7], 0.203 µM; with HLA-B*48:01 (setting [13]), not below 20 µM. For the same sequence, the Kd is 0.007 µM with HLA-A*11:01 (setting [13]); not below 20 µM in the assay with HLA-B*18:01 (setting [13]); 2.37 µM in the assay with HLA-A*31:01 (setting [13]); not below 20 µM in the assay with HLA-A*26:03 (setting [13]); not below 20 µM with HLA-B*08:02; not below 20 µM in the assay with HLA-B*40:01 (setting [13]). For the same sequence, the Kd was not below 20 µM in the assay with HLA-A*26:01 (setting [13]); not below 20 µM in the assay with HLA-A*26:02 (setting [13]); not below 20 µM in the assay with HLA-B*08:01 (setting [13]); 0.002 µM in the assay with HLA-B*58:01 (setting [13]); not below 20 µM in the assay with HLA-B*27:05 (setting [13]); not below 20 µM in the assay with HLA-B*07:02 (setting [13]). In addition, the values for the Kd with HLA-B*46:01, in the assay with HLA-A*02:01 (setting [13]) and with HLA-A*03:01 (setting [13]) were not below 20 µM, not below 20 µM and 0.022 µM, respectively.
As for QFAGGSFDF, the dissociation constant Kd in the assay with HLA-A*11:01 (setting [14]) was not below 10 µM; in the assay with HLA-B*15:01 [1] (setting [14]), 0.35 µM; with HLA-B*40:01 (setting [14]), not below 20 µM; with HLA-A*24:03 (setting [14]), 0.336 µM; in the assay with HLA-A*26:01 (setting [14]), not below 20 µM; in the assay with HLA-B*44:02 (setting [14]) it was not below 20 µM. Also, the dissociation constant Kd with HLA-B*08:01 (setting [14]) was not below 20 µM; in the assay with HLA-B*58:01 (setting [14]), 0.0416 µM; with HLA-B*35:01 (setting [14]) it was 0.0141 µM; with HLA-B*07:02 (setting [14]) it was not below 20 µM; in the assay with HLA-A*69:01 (setting [14]), not below 20 µM; with HLA-A*01:01 [2] (setting [14]), not below 20 µM. The Kd with HLA-A*02:01 (setting [14]) and in the assay with HLA-A*03:01 (setting [14]) was not below 20 µM throughout.
KRFYQTVGF: the dissociation constant Kd in the assay with HLA-B*48:01 (setting [15]), with HLA-A*11:01 (setting [15]), with HLA-B*18:01 (setting [15]), with HLA-A*31:01 (setting [15]), with HLA-A*26:03 (setting [15]) and in the assay with HLA-B*15:01 [1] (setting [15]) was not below 20 µM throughout. Also, the Kd with HLA-B*15:17 [8] is not below 20 µM; with HLA-B*73:01, 4 µM; with HLA-A*26:02 (setting [15]), not below 20 µM; with HLA-A*68:02 [9] it was not below 20 µM; in the assay with HLA-B*08:01 (setting [15]), not below 20 µM; with HLA-B*58:01 (setting [15]), not below 20 µM. Besides, the dissociation constant (Kd) in the assay with HLA-B*27:05 (setting [15]) is 0.0895 µM; with HLA-B*07:02 (setting [15]), not below 20 µM; in the assay with HLA-A*69:01 (setting [15]), not below 20 µM; with HLA-B*39:01 it was not below 20 µM; in the assay with HLA-B*57:01 [10], not below 20 µM; in the assay with HLA-A*01:01 [2] (setting [15]), not below 20 µM. The dissociation constant Kd in the assay with HLA-A*02:01 (setting [15]) and with HLA-A*03:01 (setting [15]) was not below 20 µM in each case.
Take FMGRLGPEY: the Kd is 16.1 µM in the assay with HLA-A*30:01 (setting [13]); not below 20 µM with HLA-A*11:01 (setting [13]); not below 20 µM in the assay with HLA-A*31:01 (setting [13]); 0.14 µM in the assay with HLA-B*15:01 [1] (setting [13]); not below 20 µM with HLA-B*40:01 (setting [13]); not below 5 µM in the assay with HLA-A*24:03 (setting [13]). Further, the dissociation constant (Kd) with HLA-A*26:01 (setting [13]) is not below 20 µM; with HLA-B*44:02 (setting [13]), not below 20 µM; with HLA-B*08:01 (setting [13]), not below 20 µM; with HLA-B*58:01 (setting [13]), not below 20 µM; in the assay with HLA-B*35:01 (setting [13]), 0.117 µM; in the assay with HLA-B*27:05 (setting [13]) it was not below 20 µM. In addition, the Kd in the assay with HLA-A*69:01 (setting [13]) was not below 20 µM; in the assay with HLA-A*01:01 [2] (setting [13]), 4.09 µM; with HLA-A*02:01 (setting [13]) it was not below 20 µM; in the assay with HLA-A*03:01 (setting [13]), not below 20 µM.

(Values after the Immune Epitope Database (IEDB).)
